Measured values reported in the supplement of paper PMC10567573.

B1: OAS1 (parent)
chain: YIGTHEYPHFSHRPSTLQAASTPQ

Variants of: B1
Experiment: protein stability index of a GFP-peptide fusion (GPS, HEK-293T) (PSI 1-6); higher = more stable
Settings: c terminus: a fixed tail appended
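Also: lentivirally expressed fusions sorted by FACS into six bins by GFP to DsRed ratio, PSI derived from sequencing read proportions per bin multiplied by bin number.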

Protein stability index: each site, then its substitutions
L17: N 2.42; M 2.24; H 1.93; I 1.9; R 2; E 2.06; W 2.01; F 1.83; Q 2.29; K 1.79; A 1.84; V 2.3; T 1.98; D 2.41; Y 2.14; G 2.17; C 2.14; S 2.12; P 2.5
S21: C 2.77; M 1.94; F 1.68; Y 1.95; K 1.81; A 2.1; L 1.53; E 2.24; Q 2; G 2.23; V 1.89; P 1.67; I 1.97; D 1.89; N 1.85; W 2.42; T 2.07; H 2; R 2
P23: A 2.14; I 2.74; F 1.72; L 1.73; D 2.15; N 2.54; Q 2.23; G 1.53; E 2.37; C 1.88; H 2.4; K 1.91; M 1.89
Q18: V 1.99; C 2.08; N 2.34; S 1.65; L 2.08; H 2.38; F 2.25; D 1.71; T 1.9; R 1.95; G 2.06; I 1.94; W 2.75; A 2.85; K 2.04; Y 2.37; E 2.22; P 1.81; M 1.74
T16: D 2.13; I 1.6; N 1.62; E 2.46; P 2.14; Q 2.3; M 1.42; L 2.22; S 2.34; F 1.92; A 2.29; R 2.4; V 1.73; C 1.68; K 2.08; H 2.02; Y 1.98; G 1.62; W 2.23
S15: K 1.82; F 2.67; A 2.13; Q 1.99; M 1.6; I 1.85; H 1.82; P 1.62; W 3.2; G 1.79; L 1.69; Y 1.79; C 1.61; D 2.1; R 1.96; T 1.94; V 2; N 2.24; E 2.05
A20: F 1.73; K 2.17; H 1.64; M 1.93; R 1.82; T 2.04; I 2.19; E 2.56; D 1.75; S 2.11; W 2.43; N 2.08; L 2.39; V 1.79; C 1.84; P 1.97; Y 1.89; G 1.88; Q 1.93
A19: M 2.15; V 1.81; D 2.3; N 1.9; F 1.99; R 2.29; E 2.58; S 1.9; C 2.07; Q 2.04; L 1.85; H 1.89; P 2.11; Y 2.42; W 1.28; I 2.04; K 1.68; T 1.72; G 1.98
P14: Y 2.09; W 2.81
T22: Y 1.71; H 1.6; D 2.64; M 2.27; L 1.78; K 2.35; N 2.1; F 1.93; E 1.8; S 1.38; V 1.93; I 2.13; C 1.62; A 2.51; Q 2.31; G 1.59; W 1.53; P 2.17; R 1.68
